The source of these data is publication PMC10554743.

Experiment [1] has as its target McdB CC + CTD truncation (Synechococcus elongatus PCC 7942). Briefly: SEC-MALS; Shodex PROTEIN KW-804; 50 µl at 1.5 mg/ml; 150 mM KCl, 20 mM Tris-HCl pH 8.2; BSA as calibration standard. On the technique in general: SEC sorts molecules by how far they enter the pores of the column.
Experiment [2] deals with McdB CC domain truncation (Synechococcus elongatus PCC 7942). Described as above.
The target of experiment [3] is McdB IDR + CC truncation (Synechococcus elongatus PCC 7942). The description is as above.
The target in experiment [4] is McdB with all six basic residues of the IDR substituted to glutamines (Synechococcus elongatus PCC 7942). Described as above.
The target in experiment [5] is Se7942 McdB (full-length, wild type) (Synechococcus elongatus PCC 7942). The experiment is described as above.
The target of the next experiment is McdB CTD 2Q left. Briefly: SEC-MALS.
Experiment [6] concerns the target McdB with four glutamine substitutions in the CTD. Briefly: SEC-MALS.
Experiment [7] shares this target. Briefly: SEC-MALS. This is another data set of the same source.
The target of experiment [8] is McdB with all six basic residues of the IDR substituted to glutamines. Briefly: SEC-MALS.

Regarding “McdB CC + CTD truncation (domain or fragment)”, the stoichiometry N in experiment [1] was determined as 6.

In experiment [2], “McdB CC domain truncation (domain or fragment)” registered a stoichiometry N of 2.

Take “McdB IDR + CC truncation (domain or fragment)”: in experiment [3], the stoichiometry N amounted to 2.

In the case of “McdB with all six basic residues of the IDR substituted to glutamines (natural protein)”, the stoichiometry N in experiment [4] is 6.

In the case of “Se7942 McdB (full-length, wild type) (natural protein)”, the stoichiometry N in experiment [5] was determined as 6.

Turning to “Se7942 McdB (full-length, wild type) CTD 2Q left: … -> … (E->Q, E->Q at segment positions 1, 2)”, in the experiment with McdB CTD 2Q left (parent: 5.5), the other: multiple (oligomer MW over monomer MW) came to 4.5 x. Besides, the other: oligomer MW (SEC-MALS) in the experiment with McdB CTD 2Q left (parent: 96.4) was 77.8 kDa.

In the case of “Se7942 McdB (full-length, wild type) CTD all: … -> … (E->Q, E->Q, E->Q, D->Q at segment positions 1, 2, 9, 11)”, the other: multiple (oligomer MW over monomer MW) in experiment [6] (parent: 5.5) and in experiment [7] (parent: 5.5) was 1.8 x in each case. Also, the other: oligomer MW (SEC-MALS) in experiment [6] (parent: 96.4) and in experiment [7] (parent: 96.4) was 31.8 kDa each time.

On to “Se7942 McdB (full-length, wild type) R7Q; K9Q; K10Q; R11Q; R13Q; R18Q”, for which the other: multiple (oligomer MW over monomer MW) in experiment [8] (parent: 5.5) is 5.6 x. Further, the other: oligomer MW (SEC-MALS) in experiment [8] (parent: 96.4) turned out to be 96.1 kDa.

The term stoichiometry N denotes the number of molecules, sites or subunits per partner or assembly.
